Measured values as given in patent publication EP3080145B1.
Values belong to the molecule of their own block, whether it stands above or below them.

Experiments:
[1] = target: HFBI variant D40Q/D43N (Trichoderma reesei) (UniProt P52754); test: QCM-D, enzyme injected over adsorbed D40Q/D43N layer, pH series
[2] = target: HFBI variant D40Q/D43N (Trichoderma reesei) (UniProt P52754); test: QCM-D, enzyme injected over adsorbed D40Q/D43N layer, around pH 5

Chain of UniProt P52754 (P52754 23-97 D62Q/D65N, form in doubt): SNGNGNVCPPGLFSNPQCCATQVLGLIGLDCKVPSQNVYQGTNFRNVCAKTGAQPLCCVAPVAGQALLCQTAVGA

adsorbed mass [1]: 55 to 100 ng/cm^2
Molecule: Trichoderma reesei xylanase II (from UniProt P36217 34-223) (enzyme)

maximum adsorption (adsorbed mass) [2]: 600 ng/cm^2
B1: Trichoderma reesei cellobiohydrolase I (enzyme, UniProt P62694 18-513, looked up)
chain: QSACTLQSETHPPLTWQKCSSGGTCTQQTGSVVIDANWRWTHATNSSTNCYDGNTWSSTLCPDNETCAKNCCLDGAAYASTYGVTTSGNSLSIGFVTQSAQKNVGARLYLMASDTTYQEFTLLGNEFSFDVDVSQLPCGLNGALYFVSMDADGGVSKYPTNTAGAKYGTGYCDSQCPRDLKFINGQANVEGWEPSSNNANTGIGGHGSCCSEMDIWEANSISEALTPHPCTTVGQEICEGDGCGGTYSDNRYGGTCDPDGCDWNPYRLGNTSFYGPGSSFTLDTTKKLTVVTQFETSGAINRYYVQNGVTFQQPNAELGSYSGNELNDDYCTAEEAEFGGSSFSDKGGLTQFKKATSGGMVLVMSLWDDYYANMLWLDSTYPTNETSSTPGAVRGSCSTSSGVPAQVESQSPNAKVTFSNIKFGPIGSTGNPSGGNPPGGNRGTTTTRRPATTTGSSPGPTQSHYGQCGGIGYSGPTVCASGTTCQVLNPYYSQCL
